Experimental data from US20250152729A1.
Read-outs that look alike come from different tables or passages of the source.

Key:
[1] = target: BCMA (TNFRSF17) on NCI-H929 cells (UniProt Q02223); experiment: cell-based or functional assay
[2] = target: BCMA (TNFRSF17) on NCI-H929 cells (UniProt Q02223); experiment: cell-based or functional assay; remark: listed apart in the source

Sequence of BCMA (TNFRSF17) on NCI-H929 cells (Q02223 whole entry): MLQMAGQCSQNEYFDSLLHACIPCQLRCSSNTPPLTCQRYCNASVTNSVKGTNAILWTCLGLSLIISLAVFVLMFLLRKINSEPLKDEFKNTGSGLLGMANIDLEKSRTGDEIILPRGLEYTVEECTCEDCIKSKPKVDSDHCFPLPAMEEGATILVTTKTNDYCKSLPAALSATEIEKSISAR

With “J6M0 anti-BCMA human Alya IgG1 conjugated to McMMAF (antibody)” the Average NCI-H929 IC50 [pM], cell kill [1] was 110 pM, the Average NCI-H929 IC50 [pM], cell kill [2] was 74.5 pM and the EC50 (nM), Fab-pHast internalisation into NCI-H929 [2] was 11 nM. It also gave a Fold-Change at 6 hours (10 nM), Fab-pHast internalisation [2] of 37 fold.
